Assay results: US20140113288

B1: HtrA4-FLAG (protein)
chain: EKLHTQPSCPAVCQPTRCPALPTCALGTTPVFDLCRCCRVCPAAEREVCGGAQGQPCAPGLQCLQPLRPGFPSTCGCPTLGGAVCGSDRRTYPSMCALRAENRAARRLGKVPAVPVQWGNCGDTGTRSAGPLRRNYNFIAAVVEKVAPSVVHVQLWGRLLHGSRLVPVYSGSGFIVSEDGLIITNAHVVRNQQWIEVVLQNGARYEAVVKDIDLKLDLAVIKIESNAELPVLMLGRSSDLRAGEFVVALGSPFSLQNTATAGIVSTKQRGGKELGMKDSDMDYVQIDATINYGNSGGPLVNLDGDVIGVNSLRVTDGISFAIPSDRVRQFLAEYHEHQMKGKAFSNKKYLGLQMLSLTVPLSEELKMHYPDFPDVSSGVYVCKVVEGTAAQSSGLRDHDVIVNINGKPITTTTDVVKALDSDSLSMAVLRGKDNLLLTVIPETIN
B2: HtrA4mt-FLAG (protein)
chain: EKLHTQPSCPAVCQPTRCPALPTCALGTTPVFDLCRCCRVCPAAEREVCGGAQGQPCAPGLQCLQPLRPGFPSTCGCPTLGGAVCGSDRRTYPSMCALRAENRAARRLGKVPAVPVQWGNCGDTGTRSAGPLRRNYNFIAAVVEKVAPSVVHVQLWGRLLHGSRLVPVYSGSGFIVSEDGLIITNAHVVRNQQWIEVVLQNGARYEAVVKDIDLKLDLAVIKIESNAELPVLMLGRSSDLRAGEFVVALGSPFSLQNTATAGIVSTKQRGGKELGMKDSDMDYVQIDATINYGNAGGPLVNLDGDVIGVNSLRVTDGISFAIPSDRVRQFLAEYHEHQMKGKAFSNKKYLGLQMLSLTVPLSEELKMHYPDFPDVSSGVYVCKVVEGTAAQSSGLRDHDVIVNINGKPITTTTDVVKALDSDSLSMAVLRGKDNLLLTVIPETIN

syncytin-1-HA, Q9UQF0, sequence (Q9UQF0 21-538): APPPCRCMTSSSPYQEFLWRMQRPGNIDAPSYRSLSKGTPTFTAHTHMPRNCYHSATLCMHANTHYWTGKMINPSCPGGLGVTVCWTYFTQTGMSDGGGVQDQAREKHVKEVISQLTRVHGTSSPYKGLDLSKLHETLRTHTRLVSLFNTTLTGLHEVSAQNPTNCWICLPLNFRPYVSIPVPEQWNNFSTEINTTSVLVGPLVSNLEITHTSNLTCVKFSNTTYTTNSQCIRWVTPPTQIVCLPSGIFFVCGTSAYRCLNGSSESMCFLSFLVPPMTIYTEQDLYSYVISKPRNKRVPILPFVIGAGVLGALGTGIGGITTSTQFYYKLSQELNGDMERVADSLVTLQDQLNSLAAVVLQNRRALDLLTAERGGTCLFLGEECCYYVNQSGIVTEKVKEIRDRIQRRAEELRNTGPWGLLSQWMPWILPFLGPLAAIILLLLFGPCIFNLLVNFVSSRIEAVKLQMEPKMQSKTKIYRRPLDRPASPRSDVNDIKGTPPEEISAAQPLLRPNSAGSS

| Protein | protein level of surface syncytin-1-HA TM subunit (biotinylation, streptavidin pull-down, HA mAb) (syncytin-1-HA, Q9UQF0) | cleavage of fibronectin (immunoblotting with anti-fibronectin Ab) (fibronectin) |
| --- | --- | --- |
| B1 | the protein level of the TM subunit of syncytin-1-HA decreased in the presence of HtrA4-FLAG, but not HtrA4mt-FLAG | cleavage of fibronectin by HtrA4-FLAG, but not HtrA4mt-FLAG, was observed in a dose-dependent manner |
| B2 | the protein level of the TM subunit of syncytin-1-HA decreased in the presence of HtrA4-FLAG, but not HtrA4mt-FLAG | cleavage of fibronectin by HtrA4-FLAG, but not HtrA4mt-FLAG, was observed in a dose-dependent manner |
